Data reported in the RNAGym collection of RNA variant scans (doi:10.7554/elife.80360).

B1: CPEB3 Ribozyme (parent)
chain: GGGGGCCACAGCAGAAGCGUUCACGUCGCGGCCCCUGUCAGAUUCUGGUGAAUCUGCGAAUUCUGCUGU

Variants of: B1
Assay: self-cleavage, relative activity (ratio to wild type); higher = more cleavage; co-transcriptional
In the case of A16G U26A, the self-cleavage is reported as 0.801. With A16G U26G the self-cleavage was 0.848. Variant A16G U36C has a self-cleavage of 0.724. With A16G U38A the self-cleavage was 0.767. Variant A16G U38C has a self-cleavage of 0.665. With A16G U43A the self-cleavage was 0.784. Work on A16G U43C yielded a self-cleavage of 0.791. With A16G U44A the self-cleavage was 0.835. With A16G U46C the self-cleavage was 0.728. For A16G U46G, the self-cleavage was 0.969. In the case of A16G U49G, the self-cleavage is reported as 0.979. Work on A16G U53C yielded a self-cleavage of 0.622. A16G U55C gave a self-cleavage of 0.534. Work on A16G U61A yielded a self-cleavage of 0.833. Work on A16G U61C yielded a self-cleavage of 0.951. Work on A16G U61G yielded a self-cleavage of 0.732. Work on A16G U62A yielded a self-cleavage of 0.712. For A16G U62C, the self-cleavage was 0.788. Variant A16G U64A has a self-cleavage of 0.645. A16G U64G gave a self-cleavage of 0.727. A16G U67C gave a self-cleavage of 0.935. With A16G U67G the self-cleavage was 0.951. A16G U69A showed a self-cleavage of 1.04. Work on A16G U69G yielded a self-cleavage of 1.04. With A16U the self-cleavage was 0.888. Variant A16U A23G has a self-cleavage of 0.528. For A16U A23U, the self-cleavage was 0.867. A16U A40G gave a self-cleavage of 0.754. Work on A16U A42C yielded a self-cleavage of 0.746. With A16U A42G the self-cleavage was 0.739. Work on A16U A51G yielded a self-cleavage of 0.841. A16U A51U gave a self-cleavage of 0.853. A16U A52G gave a self-cleavage of 0.888. Variant A16U A59U has a self-cleavage of 0.381. For A16U A60C, the self-cleavage was 0.227. For A16U A60G, the self-cleavage was 0.56. A16U A60U showed a self-cleavage of 0.251. Variant A16U C18A has a self-cleavage of 0.0736. Work on A16U C22A yielded a self-cleavage of 0.12. Variant A16U C24A has a self-cleavage of 0.23. In the case of A16U C29A, the self-cleavage is reported as 0.288. Variant A16U C29G has a self-cleavage of 0.243. In the case of A16U C32G, the self-cleavage is reported as 0.24. A16U C32U showed a self-cleavage of 0.936. Work on A16U C33A yielded a self-cleavage of 0.555. A16U C33G gave a self-cleavage of 0.319. A16U C33U showed a self-cleavage of 0.865. A16U C34A gave a self-cleavage of 0.4. For A16U C34G, the self-cleavage was 0.353. In the case of A16U C34U, the self-cleavage is reported as 0.892. A16U C35A gave a self-cleavage of 0.159. Variant A16U C35G has a self-cleavage of 0.213. Variant A16U C35U has a self-cleavage of 0.768. For A16U C39A, the self-cleavage was 0.317. With A16U C39G the self-cleavage was 0.693. Variant A16U C39U has a self-cleavage of 0.533. A16U C45A gave a self-cleavage of 0.842. With A16U C57G the self-cleavage was 0.246. In the case of A16U C57U, the self-cleavage is reported as 0.196. Variant A16U C63G has a self-cleavage of 0.361. With A16U C66A the self-cleavage was 0.427. A16U C66G showed a self-cleavage of 0.356. Work on A16U C66U yielded a self-cleavage of 0.785. A16U G17A showed a self-cleavage of 0.203. A16U G17U showed a self-cleavage of 0.147. For A16U G19A, the self-cleavage was 0.13. A16U G19U showed a self-cleavage of 0.164. With A16U G25C the self-cleavage was 0.194. Work on A16U G28A yielded a self-cleavage of 0.0797. A16U G28C gave a self-cleavage of 0.166. For A16U G28U, the self-cleavage was 0.131. Work on A16U G30A yielded a self-cleavage of 0.22. With A16U G30C the self-cleavage was 0.189. A16U G31A showed a self-cleavage of 0.482. For A16U G37A, the self-cleavage was 0.154. In the case of A16U G37U, the self-cleavage is reported as 0.173. A16U G41C gave a self-cleavage of 0.366. In the case of A16U G47A, the self-cleavage is reported as 0.893. Variant A16U G48A has a self-cleavage of 0.862. A16U G48C showed a self-cleavage of 0.889. A16U G50U showed a self-cleavage of 0.862. In the case of A16U G56A, the self-cleavage is reported as 0.616. A16U G56C gave a self-cleavage of 0.82. In the case of A16U G56U, the self-cleavage is reported as 0.624. Variant A16U G58A has a self-cleavage of 0.866. Work on A16U G58C yielded a self-cleavage of 0.756. Work on A16U G65A yielded a self-cleavage of 0.442. In the case of A16U G68C, the self-cleavage is reported as 0.875. For A16U G68U, the self-cleavage was 0.948. A16U U20A gave a self-cleavage of 0.124. Variant A16U U20C has a self-cleavage of 0.196. For A16U U21A, the self-cleavage was 0.839. With A16U U26A the self-cleavage was 0.221. In the case of A16U U26C, the self-cleavage is reported as 0.812. With A16U U36A the self-cleavage was 0.166. In the case of A16U U36C, the self-cleavage is reported as 0.438. In the case of A16U U38A, the self-cleavage is reported as 0.424. Variant A16U U38C has a self-cleavage of 0.625. With A16U U43A the self-cleavage was 0.615. For A16U U43G, the self-cleavage was 0.395. In the case of A16U U44A, the self-cleavage is reported as 0.729. Work on A16U U44C yielded a self-cleavage of 0.703. For A16U U46C, the self-cleavage was 0.874. Variant A16U U49A has a self-cleavage of 0.96. For A16U U49C, the self-cleavage was 0.834. In the case of A16U U49G, the self-cleavage is reported as 0.817. A16U U53A showed a self-cleavage of 0.66. A16U U53G gave a self-cleavage of 0.549. For A16U U55G, the self-cleavage was 0.335. Variant A16U U61A has a self-cleavage of 0.93. A16U U61C showed a self-cleavage of 0.599. In the case of A16U U61G, the self-cleavage is reported as 0.902. A16U U62C showed a self-cleavage of 0.734. Work on A16U U62G yielded a self-cleavage of 0.625. A16U U64A gave a self-cleavage of 0.588. Work on A16U U64C yielded a self-cleavage of 0.463. For A16U U64G, the self-cleavage was 0.545. Work on A16U U67A yielded a self-cleavage of 0.877. A16U U67G gave a self-cleavage of 0.9. Work on A16U U69A yielded a self-cleavage of 0.923. Variant A16U U69C has a self-cleavage of 1.02. Variant G17A A23C has a self-cleavage of 0.483. For G17A A23G, the self-cleavage was 0.243. G17A A23U gave a self-cleavage of 0.585. For G17A A40C, the self-cleavage was 0.145. Work on G17A A40U yielded a self-cleavage of 0.2. G17A A42C gave a self-cleavage of 0.253. In the case of G17A A42U, the self-cleavage is reported as 0.314. Variant G17A A51C has a self-cleavage of 0.452. For G17A A51G, the self-cleavage was 0.455. Work on G17A A52G yielded a self-cleavage of 0.596. For G17A A52U, the self-cleavage was 0.519. Work on G17A A59G yielded a self-cleavage of 0.691. With G17A A60U the self-cleavage was 0.203. In the case of G17A C18A, the self-cleavage is reported as 0.116. For G17A C18G, the self-cleavage was 0.147. For G17A C22A, the self-cleavage was 0.157. G17A C22G showed a self-cleavage of 0.127. With G17A C24A the self-cleavage was 0.221. G17A C24G gave a self-cleavage of 0.116. For G17A C29A, the self-cleavage was 0.572. Work on G17A C29U yielded a self-cleavage of 0.858. Work on G17A C32G yielded a self-cleavage of 0.13. Variant G17A C32U has a self-cleavage of 0.625. G17A C33U showed a self-cleavage of 0.43. G17A C34A gave a self-cleavage of 0.2. For G17A C34U, the self-cleavage was 0.524. With G17A C35A the self-cleavage was 0.136. For G17A C35G, the self-cleavage was 0.179. Work on G17A C39A yielded a self-cleavage of 0.201. With G17A C39G the self-cleavage was 0.216. For G17A C39U, the self-cleavage was 0.213. For G17A C45A, the self-cleavage was 0.366. With G17A C45G the self-cleavage was 0.435. G17A C54A showed a self-cleavage of 0.236. For G17A C54G, the self-cleavage was 0.187. G17A C54U gave a self-cleavage of 0.488. In the case of G17A C57A, the self-cleavage is reported as 0.145. With G17A C57G the self-cleavage was 0.227. Work on G17A C57U yielded a self-cleavage of 0.197. In the case of G17A C63A, the self-cleavage is reported as 0.171. Work on G17A C63G yielded a self-cleavage of 0.257. For G17A C66A, the self-cleavage was 0.226. Variant G17A C66G has a self-cleavage of 0.233. G17A C66U showed a self-cleavage of 0.347. With G17A G19A the self-cleavage was 0.154. G17A G19C showed a self-cleavage of 0.095.
